B1: CPEB3 Ribozyme (parent)
chain: GGGGGCCACAGCAGAAGCGUUCACGUCGCGGCCCCUGUCAGAUUCUGGUGAAUCUGCGAAUUCUGCUGU

This data set covers variants of B1. The experiment in a line: self-cleavage, relative activity (ratio to wild type); higher = more cleavage; co-transcriptional.
A13C G31C: the self-cleavage worked out at 0.131.

As for C12U U38A, the self-cleavage worked out at 0.88.

C12G C27G: the self-cleavage was determined as 0.1.

With C12U C32U, the self-cleavage was 0.999.

Regarding C12A U46A, the self-cleavage turned out to be 0.804.

Regarding A13C C27G, the self-cleavage worked out at 0.048.

With G11U U43C, the self-cleavage was 0.768.

C12U U67C: the self-cleavage stood at 0.978.

Take C12G A13G: the self-cleavage is 0.48.

As to C12G U21C, the self-cleavage was found to be 0.308.

As for C12G G25C, the self-cleavage came out at 0.166.

Regarding A13C C35A, the self-cleavage was found to be 0.281.

As for C12G G19U, the self-cleavage was 0.0842.

With C12G G19A, the self-cleavage was found to be 0.137.

C12G G19C: the self-cleavage was 0.0934.

As to C12A A51C, the self-cleavage was found to be 0.544.

As to C12A A51U, the self-cleavage came out at 0.628.

In the case of C12G C22G, the self-cleavage was found to be 0.208.

For C12G C22A, the self-cleavage was found to be 0.164.

For C12U C39A, the self-cleavage was 0.756.

For C12U U55A, the self-cleavage was determined as 0.756.

As to C12A G14U, the self-cleavage stood at 0.13.

Take C12A G14A: the self-cleavage amounted to 0.148.

Regarding G11U C33U, the self-cleavage worked out at 0.948.

Consider C12G G58C, for which the self-cleavage was found to be 0.834.

Turning to C12G U62C, the self-cleavage stood at 0.458.

Take C12G U62A: the self-cleavage turned out to be 0.349.

With G11U C35A, the self-cleavage turned out to be 0.16.

In the case of A13C A42C, the self-cleavage stood at 0.602.

As to C12A G48U, the self-cleavage came out at 0.8.

For the variant G11U G31A, the self-cleavage is 0.746.

Regarding C12A C34U, the self-cleavage was 0.834.

G11C C35U: the self-cleavage came out at 0.758.

G11C C35A: the self-cleavage was 0.205.

On to G11U G30U, for which the self-cleavage was 0.263.

Turning to C12U U69G, the self-cleavage stood at 1.05.

On to C12U U69A, for which the self-cleavage turned out to be 1.02.

As for C12G G17U, the self-cleavage was 0.165.

With C12U C22A, the self-cleavage was determined as 0.2.

For G11C C22G, the self-cleavage worked out at 0.18.

With A13C G41A, the self-cleavage was found to be 0.27.

Turning to C12A G37U, the self-cleavage worked out at 0.18.

For the variant C12A G37C, the self-cleavage was found to be 0.149.

C12A G37A: the self-cleavage amounted to 0.187.

Regarding C12U G58C, the self-cleavage was 1.01.

Regarding G11C U53G, the self-cleavage came to 0.415.

C12U A52U: the self-cleavage is 0.952.

Take C12A C63A: the self-cleavage came to 0.336.

For the variant C12A C63U, the self-cleavage was determined as 0.364.

With G11U C24A, the self-cleavage amounted to 0.308.

For C12G C24A, the self-cleavage stood at 0.374.

As to C12G C24G, the self-cleavage amounted to 0.199.

Take C12G C24U: the self-cleavage was 0.435.

For the variant C12G C33U, the self-cleavage is 0.405.

G11C G68U: the self-cleavage was 0.881.

Consider C12A C29A, for which the self-cleavage came out at 0.121.

On to C12A U26A, for which the self-cleavage turned out to be 0.374.

Take C12A U26G: the self-cleavage was determined as 0.447.

On to G11C A60C, for which the self-cleavage worked out at 0.299.

With G11U C63A, the self-cleavage worked out at 0.418.

As to A13C U46A, the self-cleavage turned out to be 0.901.

Regarding A13C U46G, the self-cleavage came out at 0.885.

In the case of G11U C34A, the self-cleavage came to 0.694.

Turning to A13C C39A, the self-cleavage worked out at 0.372.

Consider A13C C39G, for which the self-cleavage was 0.538.

For C12A G19U, the self-cleavage is 0.111.

Regarding C12A G19A, the self-cleavage worked out at 0.142.

Take G11U A42U: the self-cleavage is 0.581.

With A13C C24G, the self-cleavage was found to be 0.0828.

For A13C A51C, the self-cleavage was 0.827.

As for A13C A51U, the self-cleavage worked out at 0.744.

Take A13C G50A: the self-cleavage turned out to be 0.913.

For the variant C12U U20G, the self-cleavage worked out at 0.17.

As to G11U A16G, the self-cleavage was 0.572.

Turning to A13C A15C, the self-cleavage stood at 0.264.

As to A13C A15U, the self-cleavage was 0.145.

Turning to G11U A59U, the self-cleavage stood at 0.395.

Take G11U A59C: the self-cleavage was 0.35.

For G11C A23C, the self-cleavage was 0.672.

In the case of G11C A23G, the self-cleavage was 0.626.

As to G11C C27G, the self-cleavage was 0.104.

As to C12G U43G, the self-cleavage came out at 0.361.

For C12A G31U, the self-cleavage was determined as 0.258.

Consider C12A G31A, for which the self-cleavage was determined as 0.419.

With C12A G31C, the self-cleavage was found to be 0.219.

With C12A U62C, the self-cleavage came out at 0.338.

With G11U A51C, the self-cleavage came out at 0.669.

For G11C G56C, the self-cleavage was found to be 0.176.

Consider A13C G19C, for which the self-cleavage came to 0.107.

With A13C G19A, the self-cleavage turned out to be 0.109.

Consider G11U G65A, for which the self-cleavage turned out to be 0.682.

As to C12U C27G, the self-cleavage came to 0.174.

Turning to A13C A23C, the self-cleavage is 0.83.

On to A13C C29G, for which the self-cleavage came out at 0.141.

On to C12U A51C, for which the self-cleavage is 0.977.

With G11C G65A, the self-cleavage worked out at 0.559.

On to C12U C57U, for which the self-cleavage turned out to be 0.317.

For the variant C12U U61G, the self-cleavage amounted to 0.644.

Take C12U U61C: the self-cleavage was 0.579.

As to G11C C33U, the self-cleavage is 0.827.

For G11C C33A, the self-cleavage was determined as 0.547.

Regarding G11C U64G, the self-cleavage turned out to be 0.435.

Turning to C12A C45U, the self-cleavage stood at 0.72.

As for A13C U38G, the self-cleavage was determined as 0.0833.

Regarding A13C U38A, the self-cleavage was 0.679.

On to A13C U38C, for which the self-cleavage turned out to be 0.668.

In the case of C12A A60C, the self-cleavage stood at 0.264.

As for C12U G50U, the self-cleavage was 0.953.

Consider C12U U53C, for which the self-cleavage was found to be 0.785.

Turning to C12G U36C, the self-cleavage came to 0.669.

As to A13C A60U, the self-cleavage was determined as 0.276.

A13C G25U: the self-cleavage came to 0.104.

Turning to A13C G25A, the self-cleavage was 0.129.

Take C12U U43A: the self-cleavage turned out to be 0.868.

On to A13C C32G, for which the self-cleavage is 0.192.

On to A13C C32U, for which the self-cleavage is 0.89.

Regarding C12G C63U, the self-cleavage came to 0.53.

For C12G G56A, the self-cleavage amounted to 0.741.

As to C12G G56U, the self-cleavage came out at 0.544.

In the case of G11C U38C, the self-cleavage came to 0.7.

G11C G37U: the self-cleavage turned out to be 0.165.

With G11C A16C, the self-cleavage came out at 0.276.

Regarding G11C A16U, the self-cleavage came out at 0.49.

Turning to C12U C29A, the self-cleavage turned out to be 0.451.

With C12G A40C, the self-cleavage worked out at 0.318.

For the variant C12A C35G, the self-cleavage was found to be 0.189.

For A13C C45U, the self-cleavage is 0.876.

Take C12U A15C: the self-cleavage worked out at 0.389.

Consider G11C C24G, for which the self-cleavage was 0.114.

For C12G A60U, the self-cleavage came to 0.367.

As for G11C C39U, the self-cleavage turned out to be 0.399.

As to C12A, the self-cleavage was determined as 0.806.

C12U: the self-cleavage stood at 0.996.

With C12G, the self-cleavage is 0.92.

Take G11U U21G: the self-cleavage is 0.196.

As for G11U U21C, the self-cleavage was 0.541.

Consider G11U C54A, for which the self-cleavage was 0.361.

With G11U C54G, the self-cleavage came out at 0.412.

Regarding G11U C54U, the self-cleavage was 0.819.

Take G11C C57A: the self-cleavage is 0.252.

On to C12G U69C, for which the self-cleavage amounted to 1.06.

Turning to G11U A40U, the self-cleavage amounted to 0.256.

Consider A13C C34A, for which the self-cleavage is 0.511.

With A13C C34U, the self-cleavage worked out at 0.929.

For G11U U61C, the self-cleavage is 0.271.

G11U U36A: the self-cleavage was determined as 0.164.

As for G11U G68A, the self-cleavage is 0.932.

In the case of C12U G48C, the self-cleavage was 0.972.

In the case of C12U G48A, the self-cleavage is 0.963.

On to C12U U21C, for which the self-cleavage was found to be 0.9.

In the case of C12U U49A, the self-cleavage came out at 1.02.

Consider G11C G19A, for which the self-cleavage is 0.0742.

Regarding G11C G19U, the self-cleavage came to 0.158.

Turning to C12U C54U, the self-cleavage is 0.968.

With C12G C54G, the self-cleavage is 0.518.

As for G11C C54A, the self-cleavage amounted to 0.252.

With C12G G48C, the self-cleavage worked out at 0.949.

With G11U U53A, the self-cleavage came out at 0.562.

As for C12G U61C, the self-cleavage stood at 0.282.

Take C12G A23U: the self-cleavage came out at 0.55.

As to C12G A23G, the self-cleavage stood at 0.721.

Consider C12G A23C, for which the self-cleavage was 0.628.

For the variant A13C G48U, the self-cleavage worked out at 0.934.

Turning to A13C G48C, the self-cleavage turned out to be 0.917.

Regarding A13C G48A, the self-cleavage stood at 0.957.

For the variant C12G A51U, the self-cleavage worked out at 0.854.

Take A13C G37C: the self-cleavage came out at 0.156.

Values taken from the RNAGym collection of RNA variant scans (doi:10.7554/elife.80360).
